Source: ChEMBL document CHEMBL2073889, “ATP-dependent transport of beta-estradiol 17-(beta-D-glucuronide) in rat canalicular membrane vesicles” (Am J Physiol, 1996)

Substrate: C[C@]12CC[C@@H]3c4ccc(O)cc4CC[C@H]3[C@@H]1CC[C@@H]2O[C@@H]1O[C@H](C(=O)O)[C@@H](O)[C@H](O)[C@H]1O
Assay: TP_TRANSPORTER: uptake in bile canalicular membrane vesicles from SD rat
Type: functional, cell membranes, Sprague-Dawley, Bile canalicular membrane vesicle

B1: ATP-binding cassette sub-family C member 2 (Rattus norvegicus) (protein)
chain: MDKFCNSTFWDLSLLESPEADLPLCFEQTVLVWIPLGFLWLLAPWQLYSVYRSRTKRSSITKFYLAKQVFVVFLLILAAIDLSLALTEDTGQATVPPVRYTNPILYLCTWLLVLAVQHSRQWCVRKNSWFLSLFWILSVLCGVFQFQTLIRALLKDSKSNMAYSYLFFVSYGFQIVLLILTAFSGPSDSTQTPSVTASFLSSITFSWYDRTVLKGYKHPLTLEDVWDIDEGFKTRSVTSKFEAAMTKDLQKARQAFQRRLQKSQRKPEATLHGLNKKQSQSQDVLVLEEAKKKSEKTTKDYPKSWLIKSLFKTFHVVILKSFILKLIHDLLVFLNPQLLKLLIGFVKSSNSYVWFGYICAILMFAVTLIQSFCLQSYFQHCFVLGMCVRTTVMSSIYKKALTLSNLARKQYTIGETVNLMSVDSQKLMDATNYMQLVWSSVIQITLSIFFLWRELGPSILAGVGVMVLLIPVNGVLATKIRNIQVQNMKNKDKRLKIMNEILSGIKILKYFAWEPSFQEQVQGIRKKELKNLLRFGQLQSLLIFILQITPILVSVVTFSVYVLVDSANVLNAEKAFTSITLFNILRFPLSMLPMVTSSILQASVSVDRLERYLGGDDLDTSAIRRVSNFDKAVKFSEASFTWDPDLEATIQDVNLDIKPGQLVAVVGTVGSGKSSLVSAMLGEMENVHGHITIQGSTAYVPQQSWIQNGTIKDNILFGSEYNEKKYQQVLKACALLPDLEILPGGDMAEIGEKGINLSGGQKQRVSLARAAYQDADIYILDDPLSAVDAHVGKHIFNKVVGPNGLLAGKTRIFVTHGIHFLPQVDEIVVLGKGTILEKGSYRDLLDKKGVFARNWKTFMKHSGPEGEATVNNDSEAEDDDDGLIPTMEEIPEDAASLAMRRENSLRRTLSRSSRSSSRRGKSLKNSLKIKNVNVLKEKEKEVEGQKLIKKEFVETGKVKFSIYLKYLQAVGWWSILFIILFYGLNNVAFIGSNLWLSAWTSDSDNLNGTNNSSSHRDMRIGVFGALGLAQGICLLISTLWSIYACRNASKALHGQLLTNILRAPMRFFDTTPTGRIVNRFSGDISTVDDLLPQTLRSWMMCFFGIAGTLVMICMATPVFAIIIIPLSILYISVQVFYVATSRQLRRLDSVTKSPIYSHFSETVTGLPIIRAFEHQQRFLAWNEKQIDINQKCVFSWITSNRWLAIRLELVGNLVVFCSALLLVIYRKTLTGDVVGFVLSNALNITQTLNWLVRMTSEAETNIVAVERISEYINVENEAPWVTDKRPPADWPRHGEIQFNNYQVRYRPELDLVLKGITCNIKSGEKVGVVGRTGAGKSSLTNCLFRILESAGGQIIIDGIDVASIGLHDLRERLTIIPQDPILFSGSLRMNLDPFNKYSDEEVWRALELAHLRSFVSGLQLGLLSEVTEGGDNLSIGQRQLLCLGRAVLRKSKILVLDEATAAVDLETDSLIQTTIRKEFSQCTVITIAHRLHTIMDSDKIMVLDNGKIVEYGSPEELLSNRGSFYLMAKEAGIENVNHTEL
Km: 75 µM
